The results in this text go back to patent US9163071B2.

Assay [1] concerns the target NF-κB p65, endogenous in the cells (activated by TNFα) (human) (UniProt Q04206).
For assay [2], the target named is Myc-ASC (Myc-tagged Apoptosis speck protein containing a CARD) (Homo sapiens (Human)) (UniProt Q9ULZ3).
The target of assay [3] is CIAS1-PYD (pyrin only CIAS1 construct) (Homo sapiens (Human)) (UniProt Q96P20).
Assay [4] deals with NF-κB p65, endogenous in the cells (activated by TNFα) (human) (UniProt Q04206). This is another data set of the same source.

Turning to “GFP-POP2 (GFP fusion of pyrin-only protein 2)”, the p65 localization pattern after TNFa treatment (immunofluorescence, cells scored) in assay [1] was 40%. The percentage of ASC expressing cells containing specks (CIAS1-PYD co-expressed) in assay [2] and in assay [3] was 10% throughout.
In assay [4], “FLAG-POP2 (POP2 with an N-terminal Flag epitope in pcDNA 3.1)” showed a TNFα-stimulated 3X-NF-κB-Luc reporter (luciferase) of 3 fold.
